Data as given in patent US20060183888A1.

Substrate: C[C@@H]1CC=N[C@H]1C(=O)NCCCC[C@H](N)C(=O)O
Experiment: purified protein, by the assay type
Settings: other: 37° C., pH 7.2
Method: The pyrophosphate exchange reaction was essentially performed following the method of Cole and Schimmel. All reactions were performed in duplicate at 37° C. The 100 to 200 μl reactions contained (unless noted) 0.3 to 1 HM PylSHis6. […] The specific activity of the radiolabel was adjusted from 4 to 10 dpm/pmol). The concentration of protein was 0.3 to 1 μM. At specific times, 25 μl aliquots were removed and quenched in 500 μl of a stop solution containing 1.6% (w/v) activated acid-washed charcoal (Sigma Chemical Co., St. Louis, Mo.), 80 mM sodium tetrapyrophosphate, and 3.5% (v/v) perchloric acid. Samples were filtered through Whatman GF/C glass-fiber filters and then the filter was washed three times with 5 ml of 40 mM sodium tetrasodium pyrophosphate solution containing 1.7% perchloric acid (v/v) and once with 5 ml 100% ethanol. Filters were dried at 80° C. for 5 minutes then placed in 20 ml scintillation vials containing 10 ml of Ultima Gold F scintillation cocktail (PerkinElmer), shaken once, and counted in a liquid scintillation analyzer. Identical reactions without amino acid, ATP, or enzyme were also set up as negative controls in duplicate.

B1: PylS-His6 (Methanosarcina barkeri) (protein)
chain: MDKKPLDVLISATGLWMSRTGTLHKIKHHEVSRSKIYIEMACGDHLVVNNSRSCRTARAFRHHKYRKTCKRCRVSDEDINNFLTRSTESKNSVKVRVVSAPKVKKAMPKSVSRAPKPLENSVSAKASTNTSRSVPSPAKSTPNSSVPASAPAPSLTRSQLDRVEALLSPEDKISLNMAKPFRELEPELVTRRKNDFQRLYTNDREDYLGKLERDITKFFVDRGFLEIKSPILIPAEYVERMGINNDTELSKQIFRVDKNLCLRPMLAPTLYNYLRKLDRILPGPIKIFEVGPCYRKESDGKEHLEEFTMVNFCQMGSGCTRENLEALIKEFLDYLEIDFEIVGDSCMVYGDTLDIMHGDLELSSAVVGPVSLDREWGIDKPWIGAGFGLERLLKVMHGFKNIKRASRSESYYNGISTNL
Question: How did the Km turn out when B1 was run?
Answer: Its Km is 53 µM.

Question: And the kcat?
Answer: The kcat was 0.1 s⁻¹.
